Residue numbers refer to the chain shown, from its start. Each block holds one binder with its values, some of them ahead of it.
Experiments:
[1] = biological target: human properdin (human, UniProt P27918 28-469); assay: cell-based or functional assay
[2] = biological target: T1, human properdin deletion mutant dTSR5+6 (human, UniProt P27918 28-313); assay: ELISA with CHO cell lysates of properdin deletion mutants (FIG. 6)
T1 construct: Human properdin with TSR5 and TSR6 deleted; CHO cell lysate; also called TSR0-4; TSR5+6 deletion mutant
Method: (§1) However, because dTSR5 has undergone proteolytic degradation leading to possible TSR6 removal (FIG. 5), it is likely that the epitope for mAb 25 is located in TSR6. HuP refers to full length human properdin transfection which is used as a positive control. Con refers to untransfected CHO cell lysate which is used as a negative control for lack of binding. All mutant proteins contained a 6×His tag at the C-terminus.
(§2) (see FIG. 6). ELISA plates were coated with 50 μl of 2 μg/ml of the concerned mAb overnight at 4° C. The plates were washed 3× with PBS-T and then 25 μg (in 50 μl PBS containing 1% BSA) CHO cell lysate proteins were added to the wells and the plates were incubated for 1 hour at room temperature. The plates were washed 3× with PBS-T and then captured protein was detected by biotinylated goat anti-human properdin antibody and HRP-avidin system.

[3] = biological target: T2, human properdin mutant TSR0-4+½ TSR5 (human, UniProt P27918 28-345); assay: sandwich ELISA with CHO cell lysates (FIG. 7)
T2 construct: Expressed in CHO cells, tested as lysate; expression confirmed by Western blot
Method: as §2
(§3) Three human properdin mutants comprising TSR0-4+¼ TSR5, TSR0-4+½ TSR5 or TSR0-4+¾ TSR5 were generated by conventional PCR. They were cloned into pCAGGS and expressed in CHO cells as described in Example 5. Protein expression was confirmed by Western analysis using goat anti-human properdin antibody. The blot was stripped and reprobed with a mouse anti-His tag antibody (Qiagen) to confirm that the C-terminal His Tag is present (no C-terminal proteolysis).

[4] = biological target: T3, human properdin deletion mutant dTSR6 (human, UniProt P27918 28-377); assay: ELISA with CHO cell lysates of properdin deletion mutants (FIG. 6)
T3 construct: CHO cell lysate; also called TSR0-5
Method: as §1, §2

[5] = biological target: T4, full-length human properdin with the double mutations C62A and C78A (TSR6) (human, UniProt P27918 28-469); assay: ELISA with homogenates of transfected CHO cells (FIG. 8B)
T4 construct: Whether this mutant carries a 6×His tag is not clear; Homogenate of transfected CHO cells; also called C62A and C78A double mutant

[6] = biological target: T5, human properdin mutant TSR0-5+¾ TSR6 (human, UniProt P27918 28-446); assay: sandwich ELISA with CHO cell lysates (FIG. 8A)
T5 construct: Expressed in CHO cells, tested as lysate; expression confirmed by Western blot
Method: as §2
as §3, with “TSR0-5+¼ TSR6, TSR0-5+½ TSR6” for “TSR0-4+¼ TSR5, TSR0-4+½ TSR5”, “TSR0-5+¾ TSR6” for “TSR0-4+¾ TSR5”, “proteolysis). […] These are cysteine 62 (C62) and cysteine 78 (C78) of TSR6.” for “proteolysis).”

Sequence of human properdin (P27918 28-469): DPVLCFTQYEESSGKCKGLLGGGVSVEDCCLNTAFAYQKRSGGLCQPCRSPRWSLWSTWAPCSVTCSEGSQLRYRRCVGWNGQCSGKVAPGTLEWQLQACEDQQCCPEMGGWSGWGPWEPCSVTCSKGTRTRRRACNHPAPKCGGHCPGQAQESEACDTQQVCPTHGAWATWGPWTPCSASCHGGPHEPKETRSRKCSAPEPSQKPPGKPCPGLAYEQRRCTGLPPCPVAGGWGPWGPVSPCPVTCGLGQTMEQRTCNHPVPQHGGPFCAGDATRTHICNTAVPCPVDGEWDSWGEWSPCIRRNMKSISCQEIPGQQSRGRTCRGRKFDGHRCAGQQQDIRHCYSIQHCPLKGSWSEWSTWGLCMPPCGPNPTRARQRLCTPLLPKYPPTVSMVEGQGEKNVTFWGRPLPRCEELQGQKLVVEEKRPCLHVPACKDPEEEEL
T1 sequence (P27918 other isoform, or with tags, fused parts or gaps mutant limits assumed): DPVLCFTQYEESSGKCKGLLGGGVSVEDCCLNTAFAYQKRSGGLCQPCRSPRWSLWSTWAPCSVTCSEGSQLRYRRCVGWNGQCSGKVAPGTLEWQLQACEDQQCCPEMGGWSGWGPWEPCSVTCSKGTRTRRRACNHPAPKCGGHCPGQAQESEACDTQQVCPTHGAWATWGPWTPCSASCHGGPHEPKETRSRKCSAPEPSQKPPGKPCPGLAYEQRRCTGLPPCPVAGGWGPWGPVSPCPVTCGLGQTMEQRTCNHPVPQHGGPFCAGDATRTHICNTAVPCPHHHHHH
T2 sequence (P27918 other isoform, or with tags, fused parts or gaps mutant limits assumed): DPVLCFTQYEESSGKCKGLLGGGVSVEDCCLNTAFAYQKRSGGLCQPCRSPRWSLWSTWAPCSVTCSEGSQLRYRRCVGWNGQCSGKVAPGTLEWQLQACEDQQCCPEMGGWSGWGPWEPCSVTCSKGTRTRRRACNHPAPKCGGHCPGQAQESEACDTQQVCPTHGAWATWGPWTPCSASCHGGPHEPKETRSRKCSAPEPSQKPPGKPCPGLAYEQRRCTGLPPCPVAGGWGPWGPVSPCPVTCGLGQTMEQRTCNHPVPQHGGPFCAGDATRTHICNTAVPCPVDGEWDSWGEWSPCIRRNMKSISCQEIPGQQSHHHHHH
T4 sequence (P27918 28-469 C439A/C455A limits assumed): as the sequence (P27918 28-469) above, with C412A, C428A counted along it
T3 sequence (P27918 other isoform, or with tags, fused parts or gaps mutant limits assumed): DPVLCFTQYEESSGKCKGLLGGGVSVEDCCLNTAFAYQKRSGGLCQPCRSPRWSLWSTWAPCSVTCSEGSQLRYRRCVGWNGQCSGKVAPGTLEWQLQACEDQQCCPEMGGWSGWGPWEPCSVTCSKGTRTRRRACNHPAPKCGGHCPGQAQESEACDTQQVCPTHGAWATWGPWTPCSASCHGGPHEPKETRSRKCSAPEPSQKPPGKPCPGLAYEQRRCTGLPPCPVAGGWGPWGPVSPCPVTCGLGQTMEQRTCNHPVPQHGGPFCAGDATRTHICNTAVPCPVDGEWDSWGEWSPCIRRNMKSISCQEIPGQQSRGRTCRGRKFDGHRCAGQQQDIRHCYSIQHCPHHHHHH
T5 sequence (P27918 other isoform, or with tags, fused parts or gaps mutant limits assumed): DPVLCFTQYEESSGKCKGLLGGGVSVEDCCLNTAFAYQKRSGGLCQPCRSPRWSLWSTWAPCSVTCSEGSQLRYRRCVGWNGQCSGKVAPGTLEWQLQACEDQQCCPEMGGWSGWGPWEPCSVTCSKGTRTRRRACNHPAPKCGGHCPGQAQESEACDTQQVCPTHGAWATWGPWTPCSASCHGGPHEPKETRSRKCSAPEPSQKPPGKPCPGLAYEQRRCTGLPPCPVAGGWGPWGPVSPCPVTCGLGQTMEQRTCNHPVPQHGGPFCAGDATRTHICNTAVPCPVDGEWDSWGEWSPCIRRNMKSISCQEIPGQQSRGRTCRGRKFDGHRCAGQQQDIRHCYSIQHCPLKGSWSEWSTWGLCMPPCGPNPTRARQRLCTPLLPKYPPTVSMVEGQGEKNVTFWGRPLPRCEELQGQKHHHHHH

B2: humanized 19.1 mAb with heavy chain variable region humanized 19.1 VH-3-66-04 (antibody, human IgG4 S228P, kappa, V domains shown)
VH: EVQLVESGGGLVQPGGSLRLSCAASGFSLTTYGVHWVRQAPGKGLEWVSVIWSGGDTDYNASFISRFTISRDNSKNTLYLQMNSLRAEDTAVYYCARNKDYYTNYDFTMDYWGQGTTVTVSS
VL: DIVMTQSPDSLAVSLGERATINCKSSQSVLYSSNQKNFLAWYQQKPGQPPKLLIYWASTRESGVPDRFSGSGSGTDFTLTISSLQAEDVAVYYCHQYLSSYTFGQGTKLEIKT
concentration sufficient to inhibit LPS-induced human AP complement activation in 50% NHS (C3 deposition) [1]: 10 µg/mL

B3: mAb 19.1 (antibody, V domains shown)
VH: QVQLKQSGPGLVQPSQSLSISCTVSGFSLTTYGVHWVRQSPGKGLEWLGVIWSGGDTDYNASFISRLRINKDTSKSQVFFKMNSLQADDTAYYCARNKDYYTNYDFTMDYWGQGTSVTVSS
VL: NIMMTQSPSSLAVSAGEKVTMSCKSSQSVLYSSNQKNFLAWYQQKPGQSPKLLIYWASTRESGVPDRFTGSGSGTDFILTINSVQVEDQAVYYCHQYLSSYTFGGGTKLEIK
notes: Mouse hybridoma monoclonal antibody from properdin knockout mice immunised with human properdin; kappa light chain
binding result [2]: no binding
LPS-induced AP complement activation in 50% normal human serum (C3 deposition, OD450) [1]: 5 µg/mL
acidified autologous serum lysis of PNH patient RBCs (Ham's test) [1]: ≥ 8 µg/ml
concentration sufficient to inhibit LPS-induced human AP complement activation in 50% NHS (C3 deposition) [1]: 5 µg/mL
lysis of human RBCs by 50% human serum with fH 19-20 and anti-DAF mAb [1]: 5 µg/mL
binding result [3]: no binding

B6: mAb 25 (antibody, V domains shown)
VH: QVQLLQSGAEVMKPGASVTLSCKAIGYTFIDYWIEWIKQRPGHGLEWIGEIFPGSGTINHNEKFKDKASFSAHSSSNTAYMQLSRLTSEDSAIYYCAREGLDYWGQGTTLTVSS
VL: QIVLTQSPAIMSASPGERVTMTCSASSSVSYIYWYQQKSGTSPKRWIFDTSTLASGVPTRFSGSGSGTSYSLTISSMETEDAATYYCQQWSRNPFTFGSGTKLEIK
notes: Mouse hybridoma monoclonal antibody; also called anti-properdin mAb 25
binding result [2]: no binding
binding result [4]: no binding
binding result [5]: no binding
LPS-induced AP complement activation in 50% normal human serum (C3 deposition, OD450) [1]: 5 µg/mL
acidified autologous serum lysis of PNH patient RBCs (Ham's test) [1]: ≥ 8 µg/ml
lysis of human RBCs by 50% human serum with fH 19-20 and anti-DAF mAb [1]: 5 µg/mL
binding result [6]: no binding

Results, then the binder that gave them:

acidified autologous serum lysis of PNH patient RBCs (Ham's test) [1]: 20 µg/ml
concentration sufficient to inhibit LPS-induced human AP complement activation in 50% NHS (C3 deposition) [1]: 10 µg/mL
B1: humanized 19.1 mAb with heavy chain variable region humanized 19.1 VH-4-59-01 (antibody, human IgG4 S228P, kappa, V domains shown)
VH: QVQLQESGPGLVKPSETLSLTCTVSGFSLTTYGVHWIRQPPGKGLEWIGVIWSGGDTDYNASFISRVTISVDTSKNQFSLKLSSVTAADTAVYYCARNKDYYTNYDFTMDYWGQGTTVTVSS
VL: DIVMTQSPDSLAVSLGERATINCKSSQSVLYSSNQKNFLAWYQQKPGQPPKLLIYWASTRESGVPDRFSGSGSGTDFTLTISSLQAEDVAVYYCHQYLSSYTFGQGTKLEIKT

LPS-induced AP complement activation in 50% normal human serum (C3 deposition, OD450) [1]: 5 µg/mL
lysis of human RBCs by 50% human serum with fH 19-20 and anti-DAF mAb [1]: 5 µg/mL
B4: mAb 22.1 (antibody, V domains shown)
VH: QVQLKQSGPGLVQPSQSLSITCTVSGFSLTSYGVHWVRQSPGKGLEWLGVIWSGGSTDYNAAFISRLSISKDTSKSQVFFKMNSLQPDDTAIYYCARNKDFYSNYDYTMDYWGQGTSVTVSS
VL: B3 VL with S10F, M21L, I78T, N82S, V86A, Q89L

concentration sufficient to inhibit LPS-induced human AP complement activation in 50% NHS (C3 deposition) [1]: 10 µg/mL
B5: chimeric 19.1 mAb (antibody, human IgG4 S228P, kappa, V domains shown)
VH: B3 VH
VL: NIMMTQSPSSLAVSAGEKVTMSCKSSQSVLYSSNQKNFLAWYQQKPGQSPKLLIYWASTRESGVPDRFTGSGSGTDFILTINSVQVEDQAVYYCHQYLSSYTFGGGTKLEIKT

Source: patent US20140212427A1 (University of Pennsylvania, published 2014)
